Reference: PMC7862291, “Full-length in meso structure and mechanism of rat kynurenine 3-monooxygenase inhibition” (Communications Biology, 2021)

Biological target: the molecule itself
Test: crystal structure; in meso (lipidic cubic phase, 9:1 monoolein:cholesterol); Rat-KMO with compound 3 (and NADPH) or compound 4; 3.0 Å

B1: full-length Rattus norvegicus kynurenine 3-monooxygenase (Rat-KMO), crystallisation construct (enzyme, Rattus norvegicus (rat), UniProt O88867 1-478, looked up)
chain: MASSDTEGKRVVVIGGGLVGALNACFLAKRNFQVDVYEAREDIRVANFMRGRSINLALSYRGRQALKAVGLEDQIVSKGVPMKARMIHSLSGKKSAIPYGNKSQYILSISREKLNKDLLTAVESYPNAKVHFGHKLSKCCPEEGILTMLGPNKVPRDITCDLIVGCDGAYSTVRAHLMKKPRFDYSQQYIPHGYMELTIPPKNGEYAMEPNCLHIWPRNAFMMIALPNMDKSFTCTLFMSFEEFEKLPTHSDVLDFFQKNFPDAIPLMGEQALMRDFFLLPAQPMISVKCSPFHLKSRCVLMGDAAHAIVPFFGQGMNAGFEDCLVFDELMDKFNNDLSVCLPEFSRFRIPDDHAISDLSMYNYIEMRAHVNSRWFLFQRLLDKFLHALMPSTFIPLYTMVAFTRIRYHEAVLRWHWQKKVINRGLFVLGSLVAIGSAYILVHHLSPRPLELLRSAWTGTSGHWNRSADISPRVPWSH
notes: thrombin site between GST and the N-terminus, TEV site before the C-terminal FLAG tag; C-terminus disordered from H443 in the structure; crystallised in meso with compound 3 or compound 4; No TEV cleavage is described; Treated with N-Glycosidase F; also called full-length KMO (1-478); not shown: GST, N-terminal, cleaved
- stoichiometry N: 2
